Measured values as given in US20070184523A1 (Genentech, published 2007).

Experiments:
CH3 Y407A cavity mutant = target: T1, CH3 Y407A cavity mutant (human, UniProt P01857-1 224-330 = IgG part, Y407A); test: calorimetry of a mixture of purified CH3 domains
T1 construct: domain: CH3; Isolated CH3 domain secreted from E. coli; Positions follow Eu numbering; also called designed cavity mutant

[1] = target: T2, CH3 T366S:L368A:Y407V cavity mutant (human, UniProt P01857-1 224-330 = IgG part, T366S; L368A; Y407V); test: calorimetry of a 1:1 mixture of purified CH3 domains
T2 construct: domain: CH3; Isolated CH3 domain secreted from E. coli; Positions follow Eu numbering; also called phage-selected cavity mutant

binding result (CH3 Y407A cavity mutant): binds | binding result [1]: binds
B1: CH3 T366W protuberance mutant (other, human, UniProt P01857-1 224-330, looked up, name in EU numbering)
chain: GQPREPQVYTLPPSRDELTKNQVSLWCLVKGFYPSDIAVEWESNGQPENNYKTTPPVLDSDGSFFLYSKLTVDKSRWQQGNVFSCSVMHEALHNHYTQKSLSLSPGK
notes: domain: CH3; Isolated CH3 domain secreted from E. coli (plasmid pAK19); Positions follow Eu numbering, not the UniProt entry
